Laboratory results: publication PMC7893820

Target: mGFP-tagged N-RasG12V (UniProt P01111)
Test: FRET or BRET; FLIM-FRET in fixed HEK293 EBNA cells co-transfected with donor mGFP-NRasG12V and acceptor mCherry-PDE6δ plasmids (1:3); apparent FRET efficiency from the donor's lifetime; cells with scrambled siRNA in 0.1% DMSO (control), ICMT siRNA, or 2.5 μM deltarasin for 24 h

Sequence of mCherry-tagged PDE6δ (O43924 whole entry, stated change not applied): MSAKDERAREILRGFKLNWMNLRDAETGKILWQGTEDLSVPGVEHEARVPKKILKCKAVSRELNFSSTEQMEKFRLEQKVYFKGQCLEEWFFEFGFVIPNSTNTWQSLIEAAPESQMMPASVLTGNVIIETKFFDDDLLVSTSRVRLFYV
Sequence of mGFP-tagged N-RasG12V (P01111 whole entry G12V): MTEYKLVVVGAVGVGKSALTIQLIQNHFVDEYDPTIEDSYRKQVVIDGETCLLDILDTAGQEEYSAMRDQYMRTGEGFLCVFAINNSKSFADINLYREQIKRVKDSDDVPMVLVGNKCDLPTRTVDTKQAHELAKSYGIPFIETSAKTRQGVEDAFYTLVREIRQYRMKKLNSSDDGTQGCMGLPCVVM

## mCherry-tagged PDE6δ (from UniProt O43924 1-150) (natural protein)
  reduction of FRET efficiency with 2.5 μM deltarasin: 50%
